Results taken from patent publication US20250277030A1, “ANTI-NAPI2B ANTIBODIES AND METHODS OF USE” (Zymeworks BC Inc., priority 2022, published 2025).

Assays:
[1] = test system: dsDNA; experiment: NS-ELISA non-specific binding, dsDNA; conditions: mAb at 100 nM
Protocol: (§1) The isoelectric point was measured by capillary isoelectric focusing (cIEF), the propensity for self-aggregation was measured by Affinity-capture self-interaction nanoparticle spectroscopy (AC-SINS) and non-specific binding was measured by NS-ELISA, as described below.
(§2) NS-ELISA was used to measure the propensity of the antibodies to bind to a range of biomolecules to emulate the undesirable non-specific interactions to biological matrices in vivo as described below.
(§3) NS-ELISA was carried out in Corning®96-well EIA/RIA Easy Wash™ Clear Flat Bottom Polystyrene High Bind Microplate coated overnight at 4° C. with 50 μL of Heparin (Sigma, H3149) diluted with 50 mM sodium carbonate pH 9.6 to a final concentration of 250 μg/mL. The plate was incubated for 2 days at room temperature, wells that were coated with heparin were not covered to allow air dry. […] Reactions were stopped after approximately 10 minutes by adding 100 μL of 1 M HCl to each well, and absorbance was read at 450 nm. Binding scores were calculated as the ratio of the ELISA signal of the antibody (antibody-treated) to the signal of a well containing buffer instead of the primary antibody (untreated). The cutoffs considered for each binding molecule (ssDNA, KLH, insulin, dsDNA and heparin) were internally calculated, based on the average of Zymeworks Inc. produced antibodies and antibodies benchmarks published in the literature.

[2] = target: T1, Insulin (Homo sapiens, UniProt P01308); experiment: NS-ELISA non-specific binding, insulin; conditions: mAb at 100 nM
T1 construct: purchased Sigma-Aldrich 19278
Protocol: as §1, §2, §3

[3] = AC-SINS self-aggregation propensity; assay type: physicochemical; conditions: 0.05 mg/mL in PBS pH 7.4; cutoff 10 nm = high self-aggregation propensity
Protocol: as §1
AC-SINS method was carried out in a 384-well plate format (Corning®#3702). Initially, 20 nm gold nanoparticles (Ted Pella, Inc., #15705) washed with 0.22 μm filtered Gibco™ Distilled Water were coated with a mixture of capture antibody—80% AffiniPure Goat Anti-Human IgG (H+L) (Jackson ImmunoResearch Laboratories® #109-005-088), and the non-capture antibody −20% ChromPure Goat IgG, whole molecule (Jackson ImmunoResearch Laboratories® #005-000-003), that were initially buffer exchanged into 20 mM sodium acetate pH 4.3 and diluted to 0.4 mg/mL. […] The absorbance was read from 450-700 nm at 1 nm increments, and a Microsoft Excel macro was used to identify the max absorbance, smooth the data, and fit the data using a second-order polynomial. The Alambda (nm) was calculated based on the smoothed max absorbance of the average blank (PBS alone) subtracted from the smoothed max absorbance of the antibody sample to determine the antibody AC-SINS score. Antibody-antibody interactions directly correlate with the shift in maximum absorbance wavelength of gold nanoparticles coated with the antibody of interest. […]

T1 sequence (P01308 25-54 limits assumed): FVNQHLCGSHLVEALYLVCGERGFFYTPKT
T1 sequence (P01308 90-110 limits assumed): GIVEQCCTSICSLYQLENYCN

NS-ELISA binding score (ratio of signal between antibody-treated and untreated), dsDNA [1]: 1.07
NS-ELISA binding score (ratio of signal between antibody-treated and untreated), Insulin [2]: 1.05
B1: v29456: humanized anti-NaPi2b IgG1/kappa antibody H1L2; VH SEQ ID NO:24, VL SEQ ID NO:29 (antibody, V domains shown)
VH: QVQLVQSGAEVKKPGASVKVSCKASGFTFTSYNVHWVRQAPGQGLEWMGAISPGNGDLSYAQKFQGRVTMTRDTSTSTVYMELSSLRSEDTAVYYCARGRTGMGAVDYWGQGTLVTVSS
VL: DVQMTQSPSSLSASVGDRVTITCRASQDVYSYLNWYQQKPGKAVKLLIYYTSRLQSGVPSRFSGSGSGTDYTLTISSLQPEDFATYYCQQYNIFPWTFGQGTKLEIK
modifications: v29452, v29456, v29460 VH (H1); v29453, v29454, v29455, v29456 VL (L2)
AC-SINS Δlambda (nm) [3]: 2.5 nm
